US20130089566A1

Biological target: polypeptide B9-23 composed of the ninth to twenty-third amino acid residues of the amino terminal on B chain of human insulin (human)

Row | Substance | T cell proliferation (CFSE staining, flow cytometry)
1 | spleen T cells of Balb/c mice of the pcDB9-23 and B9-23 coimmune group (cells without a defined receptor) | 0.08%
2 | spleen T cells of Balb/c mice of the pcDB9-23 immune group (cells without a defined receptor) | 22.3%
3 | spleen T cells of Balb/c mice of the B9-23 immune group (cells without a defined receptor) | 8.94%
